Assay results from patent US20250042994A1 (HAINAN SIMCERE ZAIMING PHARMACEUTICAL, published 2025).

B1: F4.33.12 (antibody, human IgG1, V domains shown)
VH: QVQLQQSGAELVRPGSSVKISCKGSGYAFSSYWMNWVKQRPGQGLEWIGQIYPGDGDTNYNGKFKGKATLTADKSSSTAYMQLSSLTSEDSAVYFCARAGFYYGSDSSMDYWGQGTSVTVSS
VL: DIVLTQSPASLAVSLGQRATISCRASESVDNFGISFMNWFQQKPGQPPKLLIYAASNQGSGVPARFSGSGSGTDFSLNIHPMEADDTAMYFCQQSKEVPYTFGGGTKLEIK
notes: human-murine chimeric antibody, human IgG1
B2: F4.22.6 (antibody, human IgG1, V domains shown)
VH: QVQLQQSGPELVKPGASVKISCKASGYAFSSFWMNWVKQRPGQGLEWIGRIYPGDGDTNYNGKFKGKATLTADKSSTTAYMHLSSLTSVDSAVYFCTRSVITAVVDWYFDVWGAGTTVTVSS
VL: QIVLSQSPAILSASPGEKVTLTCRASSSVNFMHWYQQKPGSSPKPWIYATSNLASGAPARFSGSGSGTSYSLTISRVEAEDAAAYYCQQWSSYPIFTFGSGTKLEIK
notes: as for B1
B3: F4.21.2 (antibody, human IgG1, V domains shown)
VH: QVQLKQSGPGLVQPSQSLSITCTVSGFSLSTYGVHWVRQSPGRGLEWLGVIWIGGTTDYNAAFISRLTISKDNSRGQVFFKMDSLQANDTAIYYCARKGYYKYDGGYYYAMDYWGQGTSVTVSS
VL: DIQMTQSSSYLSVSLGGRVTITCKASDHINNWLAWYQQKPGNAPWLLISGATSLETGVPSRFSGSGSGKDYTLSISSLQTEDVATYYCQQYWSTPLTFGAGTKLELK
notes: as for B1
B4: F4.49.11 (antibody, human IgG1, V domains shown)
VH: DVQLRASGPGLVKPSQSLSLTCSVTGYSITSGYYWNWIRQFPGNKLEWMGCISYDGTNNYNPSLKNRISFTRDTSKNQFFLNLNSVTTEDSATYYCARRVYYRYDGVVDYWGQGTSVTVSS
VL: ENVLTQSPAIMSASPGEKVTMTCSASSSVSYIHWYQQKSSTAPKLWIYDTSKLASGVPGRFSGSRSRNSYSLTISSMEAEDVATYYCFQGSGYPLTFGSGTKLEIK
notes: as for B1
B5: F4.35.5 (antibody, human IgG1, V domains shown)
VH: EIQLQQSGPELVKPGASVKVSCKASGYAFTSYNMYWVKQSHGKSLEWIGYIDPYNGDTRYNQKFKGKATLTVDKSSSTAYMHLNSLTSEDSAVYYCTRSGTGRDYWGQGTTLTVSS
VL: QIVLTQSPAIMSASPGEKVTMTCSASSSISYMFWFQQKPGSSPRLLIYDTSSLASGVPVRFSGSGSGTSYTLTISRMEAEDAATYYCQQWSNYPYTFGGGTKLEMK
notes: as for B1

Legend:
human CD19 on Raji cells = target: T1, human CD19 on Raji cells (human, UniProt P15391 20-556); assay: FACS on Raji cells
T1 construct: whole, on cells
T1 sequence (looked up): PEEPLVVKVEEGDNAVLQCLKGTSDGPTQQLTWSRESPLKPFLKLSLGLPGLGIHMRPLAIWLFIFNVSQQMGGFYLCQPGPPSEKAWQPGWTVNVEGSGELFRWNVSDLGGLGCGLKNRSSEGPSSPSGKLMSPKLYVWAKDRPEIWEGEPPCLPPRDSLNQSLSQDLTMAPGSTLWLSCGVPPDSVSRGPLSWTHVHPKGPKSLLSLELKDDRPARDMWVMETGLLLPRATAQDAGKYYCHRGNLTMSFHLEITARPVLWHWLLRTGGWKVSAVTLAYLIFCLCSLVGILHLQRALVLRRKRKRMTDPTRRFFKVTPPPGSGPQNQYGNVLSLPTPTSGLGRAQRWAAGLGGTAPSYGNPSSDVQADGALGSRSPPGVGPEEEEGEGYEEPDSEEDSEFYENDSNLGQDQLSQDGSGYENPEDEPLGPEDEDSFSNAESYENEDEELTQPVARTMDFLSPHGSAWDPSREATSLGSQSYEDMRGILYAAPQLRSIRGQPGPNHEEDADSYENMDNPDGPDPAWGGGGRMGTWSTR

[1] = target: T2, monkey CD19 on HEK293T-monkey CD19 cells (monkey); assay: FACS on HEK293T-monkey CD19 cells
T2 construct: whole, on cells
Method in brief: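 Antibody binding was read as MFI by flow cytometry and EC50 was taken from curve fitting. Before that, cells at 2×10⁶ cells/ml in PBS with 2% (w/w) BSA were exposed to samples for 2 h on ice and washed. Parental HEK293T cells were tested the same way.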

[2] = target: T3, human CD19 on CHO-K1-human CD19 cells (human, UniProt P15391 20-556); assay: FACS on CHO-K1-human CD19 cells
T3 construct: whole, on cells; also called CHO-K1-human CD19-2C8
T3 sequence (looked up): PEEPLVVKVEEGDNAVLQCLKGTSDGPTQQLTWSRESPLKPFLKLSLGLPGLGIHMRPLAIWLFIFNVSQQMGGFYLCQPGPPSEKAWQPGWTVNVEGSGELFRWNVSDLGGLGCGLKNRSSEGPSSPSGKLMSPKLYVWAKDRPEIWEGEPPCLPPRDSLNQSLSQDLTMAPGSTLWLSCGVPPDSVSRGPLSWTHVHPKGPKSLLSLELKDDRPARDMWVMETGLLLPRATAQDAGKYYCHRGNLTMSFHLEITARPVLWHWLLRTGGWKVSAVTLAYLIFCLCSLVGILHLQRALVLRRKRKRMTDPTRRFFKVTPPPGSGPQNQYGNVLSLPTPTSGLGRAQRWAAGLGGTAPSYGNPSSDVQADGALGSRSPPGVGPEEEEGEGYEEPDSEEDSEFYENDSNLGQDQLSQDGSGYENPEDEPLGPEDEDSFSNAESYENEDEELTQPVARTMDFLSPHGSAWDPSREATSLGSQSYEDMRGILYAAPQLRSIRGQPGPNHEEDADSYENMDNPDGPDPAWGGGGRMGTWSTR

[3] = target: T4, cynomolgus monkey CD19 on peripheral blood B cells (cynomolgus monkey (Macaca fascicularis), UniProt A0A2K5W8L9 20-557); assay: FACS, cynomolgus PBMC, CD20+ B cells
T4 construct: whole, on cells; also called cynomolgus monkey B cells
T4 sequence: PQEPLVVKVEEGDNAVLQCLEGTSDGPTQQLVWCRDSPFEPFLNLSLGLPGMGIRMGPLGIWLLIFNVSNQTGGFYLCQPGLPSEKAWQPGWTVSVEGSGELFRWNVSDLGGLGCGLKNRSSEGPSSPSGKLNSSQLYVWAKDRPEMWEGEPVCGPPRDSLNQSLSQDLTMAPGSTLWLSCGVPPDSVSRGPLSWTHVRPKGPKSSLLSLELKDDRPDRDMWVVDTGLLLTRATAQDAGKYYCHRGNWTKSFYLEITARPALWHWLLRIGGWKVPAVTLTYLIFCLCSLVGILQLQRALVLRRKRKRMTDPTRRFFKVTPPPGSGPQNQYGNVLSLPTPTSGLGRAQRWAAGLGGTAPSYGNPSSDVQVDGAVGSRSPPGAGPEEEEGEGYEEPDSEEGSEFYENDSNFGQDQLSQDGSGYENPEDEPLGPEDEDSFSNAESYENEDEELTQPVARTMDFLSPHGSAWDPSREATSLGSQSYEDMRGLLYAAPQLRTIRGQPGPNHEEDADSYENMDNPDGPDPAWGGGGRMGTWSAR

Row | Binder | EC50 (human CD19 on Raji cells) [nM] | Maximum mean fluorescence intensity (human CD19 on Raji cells) | Maximum mean fluorescence intensity [1] | EC50 [2] [nM] | Maximum mean fluorescence intensity [2] | Proportion of chimeric antibody positive cells to B cells (%) at 1 nM [3] [%] | Proportion of chimeric antibody positive cells to B cells (%) at 10 nM [3] [%] | Proportion of chimeric antibody positive cells to B cells (%) at 100 nM [3] [%] | EC50 [1] [nM]
1 | B1 | 2.6 | 28200 | 50 | 1.47 | 52500 | 1 | 1 | 2 | 
2 | B2 | 0.67 | 27300 | 7380 | 0.1 | 14700 | 2 | 2 | 12 | ~129
3 | B3 | 2.69 | 30800 | 39200 | 1.02 | 52600 | 2 | 3 | 18 | 9.1
4 | B4 | 6.21 | 20300 | 73500 | 3.1 | 44200 | 67 | 96 | 98 | 3.08
5 | B5 | 0.69 | 25000 | 70 | 1.08 | 50000 | 1 | 2 | 3 | 
